The values that follow come from paper PMC8904551.

In assay [1] the target is β2 adrenergic receptor, the receptor part of the β2AR-Spep SPASM sensor (UniProt P07550). The assay is described as follows: FRET or BRET; steady-state ΔFRET of the β2AR-Spep SPASM sensor in native HEK293T membranes; 100 µM isoproterenol with 30 µM soluble Qpep (Gαq peptide), 5 min, 25 °C, FRET buffer; both partners on one chain. For orientation: In BRET a luciferase serves as donor, and the signal depends on an acceptor being close.

For assay [2] the target is unchanged. The assay is described as follows: FRET or BRET; stopped-flow decay of the FRET ratio (mCit/mCer) of the β2AR-Spep SPASM sensor in native HEK293T membranes, preincubated with 100 µM isoproterenol and quenched with 10 µM Nb6B9; FRET buffer; triple exponential fit with one decay constrained to the decay without Nb6B9; both partners on one chain.
The target is the same in assay [3]. Description: FRET or BRET; steady-state ΔFRET of the β2AR-Spep SPASM sensor in native HEK293T membranes; 100 µM clenbuterol with 30 µM soluble Qpep (Gαq peptide), 5 min, 25 °C, FRET buffer; both partners on one chain.
Assay [4] shares this target. The assay is described as follows: FRET or BRET; steady-state ΔFRET of the β2AR-Spep SPASM sensor in native HEK293T membranes; 100 µM clenbuterol (partial agonist) against buffer, 5 min, 25 °C, FRET buffer; both partners on one chain.
The target of assay [5] is N-terminally biotinylated Gαs-peptide (bio-Spep). The assay is described as follows: pull-down; affinity sequestration as above, with 10 µM Qpep (Gαq peptide) added to the 30 µM bio-Spep; 100 µM isoproterenol; streptavidin Dynabeads; FRET buffer + 0.1 mg/mL BSA.
Assay [6] shares this target. The assay is described as follows: pull-down; affinity sequestration: β2AR-mCer native membranes with 100 µM isoproterenol and 30 µM bio-Spep, 5 min at room temperature, then streptavidin Dynabeads for 5 min; fraction bound = 1 - fraction of mCerulean counts in the supernatant; FRET buffer + 0.1 mg/mL BSA.

As to “Gαs-peptide (Spep), the 27 amino acid Gα C-terminal peptide of the β2AR-Spep SPASM sensor”, the fold increase of the interaction (ΔFRET) with Qpep against without, isoproterenol in assay [1] worked out at 2 fold. In assay [2], the koff, strong interaction state (slow decay) came out at 0.006 s⁻¹ and the koff, weak interaction state (fast decay) amounted to 0.3 s⁻¹. The same substance registered a fold increase of the interaction (ΔFRET) with Qpep against without, clenbuterol in assay [3] of 5 fold. The same substance displayed a fold weaker interaction (ΔFRET) with clenbuterol than with isoproterenol in assay [4] of 6 fold.
Consider “β2AR-mCerulean (from UniProt P07550 1-413) (receptor)”, for which the fraction of receptor bound, with 10 µM Qpep in assay [5] worked out at 17%. Moreover, in assay [6], the fraction of receptor bound was determined as 5%.
